Experiments:
PK1R [1] = biological target: T1, PK1R (Rattus norvegicus, UniProt Q8R416); conditions: test compound 1 μM basolateral, 15 min; PK1 10 and 100 nM cumulative; FIGS. 9-11
Procedure: Methodology. The basic methodology for Using-type ion flux chambers used in these studies was the same as that described in detail above with the following modifications to the experimental protocol. […] The responses to two sequential EFS were used to guage tissue viability and comparability of the responses of individual tissues from each rat and between rats. Tissue conductance was measured at periodic intervals as changes in the amplitudes of brief short-circuit current responses evoked by application of 1 mV amplitude bi-polar pulses from a pulse generator using Ohm's Law. Three to four tissues from each rat were studied. The tissues from a given animal were grouped and assigned accordingly: one control tissue which received only vehicle followed by two consecutive doses of PK1 ligand added in a cumulative fashion to the basolateral surface of the tissue; the remaining two to three tissues from the same animal were assigned to be exposed to a given PK1 receptor antagonist (e.g., 3-4 tissues from 1 rat: Control, Antagonist1, Antagonist2, Antagonist3). Test compound was added to the basolateral tissue side reservoir at a final concentration of 1 μM and allowed a 15 minute incubation period prior to challenge with the PK1 peptide. At the end of this 15 minute exposure period, PK1 ligand at 10 and 100 nM was added in a cumulative fashion to each tissue to characterize the inhibitory effect of the test compound. At the conclusion of the experiment, EFS was re-applied to guage tissue viability and stability of responsiveness.

PK1R [2] = biological target: T1, PK1R; assay: Inhibition of PK1-induced contraction of rat ileal longitudinal smooth muscle by PK1R antagonists (organ bath); set-up: from tissue; host or cells: isolated rat ileum (organ bath); conditions: FIG. 19
From the text: The effects of PK1 on isolated segments of rodent gastrointestinal (GI) tissues have been studied ex vivo, using a “myobath” apparatus. This organ bath apparatus is used to measure the changes in contractile activity of GI smooth muscle following application of PK1, in the presence or absence of compounds that block PK1 receptor (PK1R)-mediated increases in intracellular free Ca^2+ in PK1R-transfected cells in vitro.
Methods. Rodents (mice, rats, and guinea pigs) were euthanized by […], and exsanguinated. Segments of GI tissues, including stomach, duodenum, jejunum, ileum, proximal colon and distal colon were resected from the animals and mounted, either as intact segments (i.e., 15 mm long cylinders of intestine) or flat strips (˜2.5 mm×15 mm) oriented along the longitudinal muscle axis. In some experiments flat strips were oriented along the circular muscle axis. […]
The tissues were lengthened to impart a resting load of between […] (depending on the preparation), and equilibrated under these conditions for 1 hr, changing the bathing solution to fresh KRB every 15 min. […] The response to PK1 under these conditions is compared to the response of the same tissue preparation to ACh and the contraction (or relaxation) calculated as a percent of the response to ACh. […]

rat small intestine [3] = assay: Enteropooling and accumulation of fluid in rat small intestine in vivo; conditions: 30 min
Procedure: Methodology. Experiments were carried out to gravimetrically measure the in vivo pro-secretory effect of PK1 peptide in the rat small bowel. The effect of PK1 peptide on stimulation of enteropooling and accumulation of fluid in the gut of intact rats was evaluated using two different routes of administration. Non-fasted rats were randomly assigned to two experimental groups (n=10 per group) in two separate experiments. In the first experiment, each rat was given an oral bolus (1.5 ml) of 6% carmine dye in 0.5% methylcellulose wt/vol containing a dose of PK1 peptide at 100 μg/kg or buffer vehicle. (See FIG. 12). […] (See FIG. 13). Thirty minutes later, rats were rapidly euthanized by cervical dislocation after inhalation anesthesia with 100% carbon dioxide and the entire small intestine was excised from the pylorus to the ileocecal junction. The total small bowel length was measured and then divided equally into thirds using 4-0 silk suture loops to ligate, isolate, and separate each segment to prevent leakage of intraluminal contents. […] Net fluid content weight was calculated as the difference between intact and empty intestinal segment weights to the nearest milligram and normalized to segment wet tissue weight in grams.

[4] = tested on: ileum mucosal tissues from PK1 receptor knock-out mice; assay: PK1-evoked Isc in ileum mucosal tissues from PK1 receptor knock-out mice; conditions: exogenous PK1 peptide; FIG. 5
rat small intestine [5] = assay: Small intestinal transit of an oral carmine test meal in rats in vivo; conditions: oral PK1 100 μg/kg; 30 min; FIG. 14
Procedure: Methodology. Small intestinal transit. Rats received a bolus of 1.5 ml total volume that contained a 6% solution of carmine dye in 0.5% methyl cellulose (wt/vol) together with a dose of either PK1 (100 μg/kg) or vehicle by oral feeding tube. After 30 min, the rats were rapidly euthanized by cervical dislocation after inhalation anesthesia with 100% carbon dioxide. The entire small intestine of each rat was carefully resected starting at the ileal-cecal junction first and working back toward the pylorus of the stomach until the entire small intestine had been removed intact. The excised small bowel was arranged lengthwise along a metric straight-edge, and the length of the entire small intestine was measured in centimeters. The leading edge of the carmine dye front was visualized and the distance traveled by the carmine was also measured and calculated as a percentage of the total excised length of the small intestine. Transit was expressed as the percentage of the total intestinal length traveled by the carmine dye in 30 minutes.

rat ileum = assay: Contractility of isolated rat GI segments ex vivo (myobath organ bath), response to PK1

T1 sequence (Q8R416 whole entry): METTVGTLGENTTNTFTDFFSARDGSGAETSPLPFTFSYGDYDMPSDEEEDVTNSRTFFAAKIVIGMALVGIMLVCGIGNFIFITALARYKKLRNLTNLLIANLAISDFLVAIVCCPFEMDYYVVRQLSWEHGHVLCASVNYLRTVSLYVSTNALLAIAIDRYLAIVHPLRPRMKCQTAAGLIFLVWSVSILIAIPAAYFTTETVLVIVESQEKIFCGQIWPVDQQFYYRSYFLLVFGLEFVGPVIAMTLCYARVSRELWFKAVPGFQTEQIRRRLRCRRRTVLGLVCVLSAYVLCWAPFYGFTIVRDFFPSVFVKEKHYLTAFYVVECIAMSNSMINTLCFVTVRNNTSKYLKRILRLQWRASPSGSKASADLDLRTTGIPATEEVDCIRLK

Molecule: [H]/N=C(\N)NCCNc1nc(=O)n(Cc2ccc(F)cc2)c(=O)n1Cc1ccc(OC)cc1 [JNJ 27624675]
- suppression of the PK1 evoked increase in Isc (PK1R [1]): suppressed

Molecule: COc1ccc(Cn2c(NCCNC(=N)NC(C)C)nc(=O)n(Cc3ccc(Cl)c(Cl)c3)c2=O)cc1 [JNJ 28480894]
- suppression of the PK1 evoked increase in Isc (PK1R [1]): suppressed

Molecule: COc1ccc(Cn2c(NCCn3c(N)nc4ccccc43)nc(=O)n(Cc3ccc(F)cc3)c2=O)cc1 [JNJ 28845557]
- suppression of the PK1 evoked increase in Isc (PK1R [1]): suppressed
- early versus late response inhibition (PK1R [2]): more potent and more effective at inhibition of the early response
- effect on the PK1-induced contraction of rat ileal longitudinal smooth muscle (PK1R [2]; early and late components): concentration-dependent inhibitory effect

B1: PK1: recombinant human Prokineticin 1 expressed in HEK 293 cells, FLAG tag cleaved; mixture of full-length and four C-terminal residue truncated product (protein, UniProt P58294 20-105, looked up)
Prokineticin-1: AVITGACERDVQCGAGTCCAISLWLRGLRMCTPLGREGEECHPGSHKVPFFRKRKHHTCPCLPNLLCSRFPDGRYRCSMDLKNINF
modifications: mixture with C-terminal 4-residue truncated form
notes: recombinant human Prokineticin 1 expressed in HEK 293 cells, FLAG tag cleaved; mixture of full-length and four C-terminal residue truncated product
- fluid accumulation in rat small bowel in vivo (rat small intestine [3]; intraperitoneal PK1 100 μg/kg, FIG. 13): stimulates fluid accumulation
- fluid accumulation in rat small bowel in vivo (rat small intestine [3]; oral PK1 100 μg/kg, FIG. 12): stimulates fluid accumulation
- change in Isc in tissues from PK1 receptor knock-out mice compared to wild-type littermates [4]: did not elicit a significant change in Isc
- small intestinal transit of a carmine test meal compared to vehicle (rat small intestine [5]): significantly accelerated
- response of intestinal tissues (mid-duodenum, jejunum, distal ileum) (rat ileum; PK1 100 nM): evoked longitudinal contractions
- response of proximal and distal colon (rat ileum; PK1 100 nM): evoked longitudinal relaxations
- time to peak contraction, early phase (rat ileum; isolated rat ileum): 6.4 min
- time to peak contraction, late phase (rat ileum; isolated rat ileum): 53.8 min

— US8188081B2, “Methods of treating inflammation using prokineticin 1 receptor antagonists” (Janssen Pharmaceutica, NV, priority 2005, dated 2012)
